How the values were obtained:
[1] = target: Cullin5/Rbx1 complex (mouse | not stated) (UniProt Q9D5V5); assay: SEC
[2] = target: GST-Cul5(NTD)/HIS6-Rbx2/Cul(CTD) complex (mouse) (UniProt Q9D5V5); assay: pull-down + SEC
Sequence of GST-Cul5(NTD)/HIS6-Rbx2/Cul(CTD) complex (mouse) (Q9D5V5 1-384, chain 1 of 3): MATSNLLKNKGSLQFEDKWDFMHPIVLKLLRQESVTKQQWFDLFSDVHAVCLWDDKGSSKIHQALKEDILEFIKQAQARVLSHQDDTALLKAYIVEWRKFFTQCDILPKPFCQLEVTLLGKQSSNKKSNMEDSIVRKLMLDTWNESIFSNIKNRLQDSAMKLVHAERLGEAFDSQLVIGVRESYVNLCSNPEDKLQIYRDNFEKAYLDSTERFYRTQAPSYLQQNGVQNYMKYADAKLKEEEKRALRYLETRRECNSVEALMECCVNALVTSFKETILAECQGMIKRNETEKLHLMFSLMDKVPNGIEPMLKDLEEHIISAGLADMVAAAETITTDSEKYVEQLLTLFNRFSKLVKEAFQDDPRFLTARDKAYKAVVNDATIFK
Sequence of GST-Cul5(NTD)/HIS6-Rbx2/Cul(CTD) complex (mouse) (Q9D5V5 385-780, chain 2 of 3): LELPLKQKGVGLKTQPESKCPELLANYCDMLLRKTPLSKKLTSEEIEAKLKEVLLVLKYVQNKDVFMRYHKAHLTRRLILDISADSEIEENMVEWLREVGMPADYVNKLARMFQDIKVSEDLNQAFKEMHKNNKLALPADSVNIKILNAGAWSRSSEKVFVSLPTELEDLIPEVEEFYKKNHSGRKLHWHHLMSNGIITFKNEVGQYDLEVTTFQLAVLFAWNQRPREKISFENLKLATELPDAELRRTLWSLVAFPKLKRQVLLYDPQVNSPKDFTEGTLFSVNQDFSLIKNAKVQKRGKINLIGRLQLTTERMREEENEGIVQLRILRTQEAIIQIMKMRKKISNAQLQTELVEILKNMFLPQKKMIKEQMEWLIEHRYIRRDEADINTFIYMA
Sequence of GST-Cul5(NTD)/HIS6-Rbx2/Cul(CTD) complex (mouse) (Q9WTZ1 whole entry, chain 3 of 3, further chain): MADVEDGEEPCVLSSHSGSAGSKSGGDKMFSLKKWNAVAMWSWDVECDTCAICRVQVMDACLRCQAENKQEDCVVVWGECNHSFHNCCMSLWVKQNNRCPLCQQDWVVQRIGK

Sequence of Murine SOCS3/elonginsBC complex (O35718 22-225): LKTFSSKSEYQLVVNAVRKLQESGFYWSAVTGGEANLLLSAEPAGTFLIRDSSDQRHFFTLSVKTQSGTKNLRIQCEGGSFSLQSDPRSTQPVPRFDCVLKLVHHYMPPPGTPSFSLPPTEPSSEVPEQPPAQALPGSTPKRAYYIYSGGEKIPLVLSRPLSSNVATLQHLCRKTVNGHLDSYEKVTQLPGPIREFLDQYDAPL
Sequence of Murine SOCS3/elonginsBC complex (P62869 whole entry): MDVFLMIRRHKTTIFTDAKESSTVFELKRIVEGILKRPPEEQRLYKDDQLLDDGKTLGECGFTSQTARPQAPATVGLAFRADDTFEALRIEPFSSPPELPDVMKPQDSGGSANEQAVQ
Sequence of Murine SOCS3/elonginsBC complex (P83940 whole entry): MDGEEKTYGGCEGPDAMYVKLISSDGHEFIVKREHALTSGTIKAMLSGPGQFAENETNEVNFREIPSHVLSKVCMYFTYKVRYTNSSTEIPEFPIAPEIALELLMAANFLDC
Sequence of Cullin5/Rbx1 complex (mouse | not stated) (Q9D5V5 1-384, chain 1 of 3): as the sequence (Q9D5V5 1-384, chain 1 of 3) above
Sequence of Cullin5/Rbx1 complex (mouse | not stated) (Q9D5V5 385-780, chain 2 of 3): as the sequence (Q9D5V5 385-780, chain 2 of 3) above
Sequence of Cullin5/Rbx1 complex (mouse | not stated) (P62878 whole entry, chain 3 of 3, further chain): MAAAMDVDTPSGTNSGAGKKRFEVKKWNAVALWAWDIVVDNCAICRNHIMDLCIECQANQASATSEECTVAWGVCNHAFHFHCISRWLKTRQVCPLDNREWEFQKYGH

- stoichiometry N [1]: 1
- stoichiometry N [2]: 1
Substance: Murine SOCS3/elonginsBC complex (from UniProt O35718 22-225; P62869 1-118; P83940 1-112)
